B1: N-myc proto-oncogene protein (Homo sapiens), P04198 (parent)
chain: MPSCSTSTMPGMICKNPDLEFDSLQPCFYPDEDDFYFGGPDSTPPGEDIWKKFELLPTPPLSPSRGFAEHSSEPPSWVTEMLLENELWGSPAEEDAFGLGGLGGLTPNPVILQDCMWSGFSAREKLERAVSEKLQHGRGPPTAGSTAQSPGAGAASPAGRGHGGAAGAGRAGAALPAELAHPAAECVDPAVVFPFPVNKREPAPVPAAPASAPAAGPAVASGAGIAAPAGAPGVAPPRPGGRQTSGGDHKALSTSGEDTLSDSDDEDDEEEDEEEEIDVVTVEKRRSSSNTKAVTTFTITVRPKNAALGPGRAQSSELILKRCLPIHQQHNYAAPSPYVESEDAPPQKKIKSEASPRPLKSVIPPKAKSLSPRNSDSEDSERRRNHNILERQRRNDLRSSFLTLRDHVPELVKNEKAAKVVILKKATEYVHSLQAEEHQLLLEKEKLQARQQQLLKKIEHARTC
partner: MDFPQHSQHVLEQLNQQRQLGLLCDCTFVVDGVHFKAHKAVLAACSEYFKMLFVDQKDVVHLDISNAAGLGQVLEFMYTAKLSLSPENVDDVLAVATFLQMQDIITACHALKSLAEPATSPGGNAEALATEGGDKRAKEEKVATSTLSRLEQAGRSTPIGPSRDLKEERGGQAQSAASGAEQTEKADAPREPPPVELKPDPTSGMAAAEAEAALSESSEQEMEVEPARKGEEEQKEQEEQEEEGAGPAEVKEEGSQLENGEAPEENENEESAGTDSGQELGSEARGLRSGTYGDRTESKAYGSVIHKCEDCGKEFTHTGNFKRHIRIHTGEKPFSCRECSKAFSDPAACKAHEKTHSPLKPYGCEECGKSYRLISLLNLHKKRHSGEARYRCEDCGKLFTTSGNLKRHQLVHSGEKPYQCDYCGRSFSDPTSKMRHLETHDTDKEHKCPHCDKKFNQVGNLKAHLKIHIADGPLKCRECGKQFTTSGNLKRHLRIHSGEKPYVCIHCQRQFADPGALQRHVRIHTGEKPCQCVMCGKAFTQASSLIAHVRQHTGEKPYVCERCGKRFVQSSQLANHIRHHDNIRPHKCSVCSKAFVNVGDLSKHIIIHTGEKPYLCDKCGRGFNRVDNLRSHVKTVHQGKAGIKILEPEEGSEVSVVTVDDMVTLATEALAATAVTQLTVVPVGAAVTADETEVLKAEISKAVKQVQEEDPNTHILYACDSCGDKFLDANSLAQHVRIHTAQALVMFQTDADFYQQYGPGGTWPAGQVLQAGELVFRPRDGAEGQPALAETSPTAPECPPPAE

In the experiment the parent is B1. Particulars: with zbt17_human ZBTB17, Q13105.
Turning to V421D, the “effect of a mutation on the interaction” value is recorded as “decreasing interaction strength”.

The values are drawn from IntAct's records for PubMed 26766587.
